US20150344570A1 (published 2015)

T1: FcγRIIb extracellular domain with C-terminal His tag (human, UniProt P31994 43-217)
T1 construct: extracellular domain; also called 2b; FcgRIIb
T1 sequence (looked up): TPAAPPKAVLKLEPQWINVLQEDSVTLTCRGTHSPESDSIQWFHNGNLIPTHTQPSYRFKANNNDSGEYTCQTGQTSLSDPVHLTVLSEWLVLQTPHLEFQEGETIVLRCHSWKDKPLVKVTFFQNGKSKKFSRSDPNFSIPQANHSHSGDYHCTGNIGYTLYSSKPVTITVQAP

T2: FcγRIIb (human, UniProt P31994 43-217)
T2 construct: extracellular domain; also called FcgRIIb; 2b
T2 sequence (looked up): T1 sequence (looked up)

B1: GpH7-A5/GpH7-B3 variant L234_04F/GpL16-k0 (antibody, human IgG1, kappa)
heavy 1: not shown
heavy 2: not shown
light: DIVMTQSPLSLPVTPGEPASISCQASESLVHSNRNTYLHWYLQKPGQSPQLLIYKVSNRFSGVPDRFSGSGSGTDFTLKISRVEAEDVGVYYCSQNTHVPPTFGQGTKVEIERTVAAPSVFIFPPSDEQLKSGTASVVCLLNNFYPREAKVQWKVDNALQSGNSQESVTEQDSKDSTYSLSSTLTLSKADYEKHKVYACEVTHQGLSSPVTKSFNRGEC
notes: also called He Ab
B2: GpH7-A5/GpH7-B3 variant D270_10E/GpL16-k0 (antibody, human IgG1, kappa)
heavy 1: not shown
heavy 2: not shown
light: B1 light
notes: also called He Ab
B3: GpH7-A5/GpH7-B3 variant A330_20W/GpL16-k0 (antibody, human IgG1, kappa)
heavy 1: not shown
heavy 2: not shown
light: B1 light
notes: also called He Ab
B4: GpH7-A5/GpH7-B3 variant E333_03V/GpL16-k0 (antibody, human IgG1, kappa)
heavy 1: not shown
heavy 2: not shown
light: B1 light
notes: also called He Ab
B5: GpH7-A5/GpH7-B3 variant A330_04F/GpL16-k0 (antibody, human IgG1, kappa)
heavy 1: not shown
heavy 2: not shown
light: B1 light
notes: also called He Ab
B6: GpH7-A5/GpH7-B3 variant E333_04F/GpL16-k0 (antibody, human IgG1, kappa)
heavy 1: not shown
heavy 2: not shown
light: B1 light
notes: also called He Ab
B7: GpH7-A5/GpH7-B3 variant A330_03V/GpL16-k0 (antibody, human IgG1, kappa)
heavy 1: not shown
heavy 2: not shown
light: B1 light
notes: also called He Ab
B8: GpH7-A5/GpH7-B3 variant A330_08L/GpL16-k0 (antibody, human IgG1, kappa)
heavy 1: not shown
heavy 2: not shown
light: B1 light
notes: also called He Ab
B9: GpH7-A5/GpH7-B3 variant E333_02A/GpL16-k0 (antibody, human IgG1, kappa)
heavy 1: not shown
heavy 2: not shown
light: B1 light
notes: also called He Ab
B10: GpH7-A5/GpH7-B3 variant A330_15Y/GpL16-k0 (antibody, human IgG1, kappa)
heavy 1: not shown
heavy 2: not shown
light: B1 light
notes: also called He Ab
B11: GpH7-A5/GpH7-B3 variant A330_06M/GpL16-k0 (antibody, human IgG1, kappa)
heavy 1: not shown
heavy 2: not shown
light: B1 light
notes: also called He Ab
B12: GpH7-A5/GpH7-B3 variant A330_07I/GpL16-k0 (antibody, human IgG1, kappa)
heavy 1: not shown
heavy 2: not shown
light: B1 light
notes: also called He Ab
B13: GpH7-A5/GpH7-B3 variant A330_16H/GpL16-k0 (antibody, human IgG1, kappa)
heavy 1: not shown
heavy 2: not shown
light: B1 light
notes: also called He Ab
B14: GpH7-A5/GpH7-B3 variant L328_14T/GpL16-k0 (antibody, human IgG1, kappa)
heavy 1: not shown
heavy 2: not shown
light: B1 light
notes: mutation in the GpH7-B3 chain only; also called He Ab
B15: GpH7-A5/GpH7-B3 variant N325_20W/GpL16-k0 (antibody, human IgG1, kappa)
heavy 1: not shown
heavy 2: not shown
light: B1 light
notes: as for B14
B16: GpH7-A5/GpH7-B3 variant N325_09D/GpL16-k0 (antibody, human IgG1, kappa)
heavy 1: not shown
heavy 2: not shown
light: B1 light
notes: as for B14
B17: GpH7-A5/GpH7-B3 variant L328_03V/GpL16-k0 (antibody, human IgG1, kappa)
heavy 1: not shown
heavy 2: not shown
light: B1 light
notes: as for B14
B18: GpH7-A5/GpH7-B3 variant P331_04F/GpL16-k0 (antibody, human IgG1, kappa)
heavy 1: not shown
heavy 2: not shown
light: B1 light
notes: as for B14
B19: GpH7-A5/GpH7-B3 variant L328_04F/GpL16-k0 (antibody, human IgG1, kappa)
heavy 1: not shown
heavy 2: not shown
light: B1 light
notes: as for B14
B20: GpH7-A5/GpH7-B3 variant L328_15Y/GpL16-k0 (antibody, human IgG1, kappa)
heavy 1: not shown
heavy 2: not shown
light: B1 light
notes: as for B14
B21: GpH7-A5/GpH7-B3 variant L328_06M/GpL16-k0 (antibody, human IgG1, kappa)
heavy 1: not shown
heavy 2: not shown
light: B1 light
notes: as for B14
B22: GpH7-A5/GpH7-B3 variant P331_06M/GpL16-k0 (antibody, human IgG1, kappa)
heavy 1: not shown
heavy 2: not shown
light: B1 light
notes: as for B14

Biological target: T3, FcγRIIIa extracellular domain with C-terminal His tag (human, UniProt P08637 17-208)
T3 construct: extracellular domain; also called 3a; FcgRIIIa
T3 sequence (P08637 17-208): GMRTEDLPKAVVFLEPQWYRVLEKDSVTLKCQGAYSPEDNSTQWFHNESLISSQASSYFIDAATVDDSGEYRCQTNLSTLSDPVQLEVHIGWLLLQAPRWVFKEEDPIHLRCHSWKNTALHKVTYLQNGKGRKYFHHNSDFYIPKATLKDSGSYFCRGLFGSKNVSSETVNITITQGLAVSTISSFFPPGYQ
Test: SPR, binding relative to GpH7-A5/GpH7-B3/GpL16-k0 = 100
Procedure: (§1) The heterodimerized antibodies He Abs in which one of the H chains was introduced with an alteration were assayed for their binding activities to each activating FcγR and inhibitory FcγR according to the method described in Example 4. […] The activating FcγRs in FIGS. 26, 27, 28, and 29 are FcγRIa, FcγRIIa (R), FcγRIIa (H), and FcγRIIIa, respectively.
(§2) Analysis of interaction between objective antibody and the FcγR was carried out using Biacore T100 (GE Healthcare). HBS-EP+ (GE Healthcare) was used as the running buffer, and the measurement temperature was set to 25° C. Chips produced by immobilizing the antigen peptide by the amine coupling method to a Series S Sencor Chip CM5 (GE Healthcare), or alternatively, chips produced by allowing preliminarily biotinylated antigen peptides to interact with and immobilize onto a Series S Sensor Chip SA (certified) (GE Healthcare) were used. Antibodies of interest were captured onto an antigen peptide-immobilized chip, and allowed to interact to each FcγR diluted with running buffer. To regenerate and repeatedly use the chip, the antibodies captured on the chip were washed off by reacting 10 mM glycine-HCl, pH 1.5.

He/Con_3a | Binder
118 % of control | B1
123 % of control | B2
104 % of control | B3
103 % of control | B4
147 % of control | B5
101 % of control | B6
101 % of control | B7
124 % of control | B8
105 % of control | B9
125 % of control | B10
142 % of control | B11
103 % of control | B12
104 % of control | B13

Biological target: T1, FcγRIIb extracellular domain with …
Test: as above
Procedure: as §1, §2

He/Con_2b | Binder
99.8 % of control | B1
76.5 % of control | B2
76.1 % of control | B3
93.2 % of control | B4
92.8 % of control | B5
94.6 % of control | B6
52.4 % of control | B7
70.5 % of control | B8
83.8 % of control | B9
95 % of control | B10
80.5 % of control | B11
67.1 % of control | B12
87.6 % of control | B13

Biological target: T4, FcγRIIIa (human, UniProt P08637 17-208)
T4 construct: extracellular domain; also called FcgRIIIa; 3a
T4 sequence (P08637 17-208): as above
Test: SPR (Biacore), relative binding

He/Con_3a | Binder
75.3 % of GpH7-A5/GpH7-B3/GpL16-k0 | B14
32.8 % of GpH7-A5/GpH7-B3/GpL16-k0 | B15
48 % of GpH7-A5/GpH7-B3/GpL16-k0 | B16
78.7 % of GpH7-A5/GpH7-B3/GpL16-k0 | B17
77.3 % of GpH7-A5/GpH7-B3/GpL16-k0 | B18
79.3 % of GpH7-A5/GpH7-B3/GpL16-k0 | B19
68.3 % of GpH7-A5/GpH7-B3/GpL16-k0 | B20
78.6 % of GpH7-A5/GpH7-B3/GpL16-k0 | B21
74.8 % of GpH7-A5/GpH7-B3/GpL16-k0 | B22

Biological target: T2, FcγRIIb
Test: SPR (Biacore), relative binding

He/Con_2b | Binder
141 % of GpH7-A5/GpH7-B3/GpL16-k0 | B14
169 % of GpH7-A5/GpH7-B3/GpL16-k0 | B15
124 % of GpH7-A5/GpH7-B3/GpL16-k0 | B16
126 % of GpH7-A5/GpH7-B3/GpL16-k0 | B17
110 % of GpH7-A5/GpH7-B3/GpL16-k0 | B18
219 % of GpH7-A5/GpH7-B3/GpL16-k0 | B19
193 % of GpH7-A5/GpH7-B3/GpL16-k0 | B20
142 % of GpH7-A5/GpH7-B3/GpL16-k0 | B21
102 % of GpH7-A5/GpH7-B3/GpL16-k0 | B22
